Assay [1] deals with SARS-CoV-2 Beta variant spike protein on pseudovirus (SARS-CoV-2), P0DTC2. Briefly: cell-based or functional assay.
In assay [2] the target is SARS-CoV-2 Delta variant spike protein on pseudovirus (SARS-CoV-2), P0DTC2. As to the kind of experiment: cell-based or functional assay.

B1: NCI-CoV-S2A9 (VNAR)
chain: ARVDQTPRSVTKETGESLTINCVLRDASYALGRTCWYRKKSGSTNEESISKGGRYVETVNSGSKSFSLRINDLTVEDGGTYRCGVSTPWSCDYGPLCFYAACGDGTVVTVN
As to B1, the IC50 for neutralizing pseudovirus in assay [1] came out at 2220 nM; in assay [2], 1880 nM.

Source of the values: US20240417446A1.
